Like-named read-outs stand apart in the source and are kept apart here.
Target: HLA-A2.1 molecules on T2 (TAP-, HLA-A2.1+) cells (human)
Experiment: T2 cells, peptide binding by surface HLA-A2.1 (BB7.2) flow cytometry; ratio of concentrations reaching 20% of maximal binding

Binder | RA (relative affinity) (ratio to HIV 1 rt.476 reference peptide) (remark: other sources report otherwise) | RA (relative affinity) (ratio to HIV 1 rt.476 reference peptide)
RMPEAAPPV [p53 65-73 epitopic peptide] | 0.91 | –
VLPDVFIRC (modifications not checked) [NA17-A nt38-64 epitopic peptide] | – | 1.52

Source: patent US7345026
